# Assay results reported in patent publication US20180155451A1 (published 2018).
# B1: GpH7-A5/GpH7-B3 variant S239_01G/GpL16-k0 (antibody, human IgG1, kappa)
# heavy 1: not shown
# heavy 2: not shown
# light: DIVMTQSPLSLPVTPGEPASISCQASESLVHSNRNTYLHWYLQKPGQSPQLLIYKVSNRFSGVPDRFSGSGSGTDFTLKISRVEAEDVGVYYCSQNTHVPPTFGQGTKVEIERTVAAPSVFIFPPSDEQLKSGTASVVCLLNNFYPREAKVQWKVDNALQSGNSQESVTEQDSKDSTYSLSSTLTLSKADYEKHKVYACEVTHQGLSSPVTKSFNRGEC
# notes: Heterodimerized anti-glypican-3 IgG1; the substitution stands in the GpH7-B3 chain only; also called He Ab
# B2: GpH7-A5/GpH7-B3 variant S239_05P/GpL16-k0 (antibody, human IgG1, kappa)
# heavy 1: not shown
# heavy 2: not shown
# light: B1 light
# notes: as for B1
# B3: GpH7-A5/GpH7-B3 variant D265_01G/GpL16-k0 (antibody, human IgG1, kappa)
# heavy 1: not shown
# heavy 2: not shown
# light: B1 light
# notes: as for B1
# B4: GpH7-A5/GpH7-B3 variant P238_19Q/GpL16-k0 (antibody, human IgG1, kappa)
# heavy 1: not shown
# heavy 2: not shown
# light: B1 light
# notes: as for B1
# B5: GpH7-A5/GpH7-B3 variant S239_04F/GpL16-k0 (antibody, human IgG1, kappa)
# heavy 1: not shown
# heavy 2: not shown
# light: B1 light
# notes: as for B1
# B6: GpH7-A5/GpH7-B3 variant S239_06M/GpL16-k0 (antibody, human IgG1, kappa)
# heavy 1: not shown
# heavy 2: not shown
# light: B1 light
# notes: as for B1
# B7: GpH7-A5/GpH7-B3 variant S239_03V/GpL16-k0 (antibody, human IgG1, kappa)
# heavy 1: not shown
# heavy 2: not shown
# light: B1 light
# notes: as for B1
# B8: GpH7-A5/GpH7-B3 variant P238_18N/GpL16-k0 (antibody, human IgG1, kappa)
# heavy 1: not shown
# heavy 2: not shown
# light: B1 light
# notes: as for B1
# B9: GpH7-A5/GpH7-B3 variant P238_16H/GpL16-k0 (antibody, human IgG1, kappa)
# heavy 1: not shown
# heavy 2: not shown
# light: B1 light
# notes: as for B1
# B10: GpH7-A5/GpH7-B3 variant P238_20W/GpL16-k0 (antibody, human IgG1, kappa)
# heavy 1: not shown
# heavy 2: not shown
# light: B1 light
# notes: as for B1
# B11: GpH7-A5/GpH7-B3 variant S239_05P/GpL16-k0 (antibody, human IgG1, kappa)
# heavy 1: not shown
# heavy 2: not shown
# light: B1 light
# notes: Heterodimerized IgG1 (He Ab); mutation only in the GpH7-B3 chain; also called He Ab S239P
# B12: GpH7-A5/GpH7-B3 variant V266_10E/GpL16-k0 (antibody, human IgG1, kappa)
# heavy 1: not shown
# heavy 2: not shown
# light: B1 light
# notes: Heterodimerized IgG1 (He Ab); mutation only in the GpH7-B3 chain; also called He Ab V266E
# B13: GpH7-A5/GpH7-B3 variant V266_07I/GpL16-k0 (antibody, human IgG1, kappa)
# heavy 1: not shown
# heavy 2: not shown
# light: B1 light
# notes: Heterodimerized IgG1 (He Ab); mutation only in the GpH7-B3 chain; also called He Ab V266I
# B14: GpH7-A5/GpH7-B3 variant S239_08L/GpL16-k0 (antibody, human IgG1, kappa)
# heavy 1: not shown
# heavy 2: not shown
# light: B1 light
# notes: Heterodimerized IgG1 (He Ab); mutation only in the GpH7-B3 chain; also called He Ab S239L
# B15: GpH7-A5/GpH7-B3 variant S239_10E/GpL16-k0 (antibody, human IgG1, kappa)
# heavy 1: not shown
# heavy 2: not shown
# light: B1 light
# notes: Heterodimerized IgG1 (He Ab); mutation only in the GpH7-B3 chain; also called He Ab S239E
# B16: GpH7-A5/GpH7-B3 variant V266_09D/GpL16-k0 (antibody, human IgG1, kappa)
# heavy 1: not shown
# heavy 2: not shown
# light: B1 light
# notes: Heterodimerized IgG1 (He Ab); mutation only in the GpH7-B3 chain; also called He Ab V266D
# B17: GpH7-A5/GpH7-B3 variant V266_06M/GpL16-k0 (antibody, human IgG1, kappa)
# heavy 1: not shown
# heavy 2: not shown
# light: B1 light
# notes: Heterodimerized IgG1 (He Ab); mutation only in the GpH7-B3 chain; also called He Ab V266M
# B18: GpH7-A5/GpH7-B3 variant V266_13S/GpL16-k0 (antibody, human IgG1, kappa)
# heavy 1: not shown
# heavy 2: not shown
# light: B1 light
# notes: Heterodimerized IgG1 (He Ab); mutation only in the GpH7-B3 chain; also called He Ab V266S
# B19: GpH7-A5/GpH7-B3 variant S239_20W/GpL16-k0 (antibody, human IgG1, kappa)
# heavy 1: not shown
# heavy 2: not shown
# light: B1 light
# notes: Heterodimerized IgG1 (He Ab); mutation only in the GpH7-B3 chain; also called He Ab S239W
# B20: GpH7-A5/GpH7-B3 variant S239_18N/GpL16-k0 (antibody, human IgG1, kappa)
# heavy 1: not shown
# heavy 2: not shown
# light: B1 light
# notes: Heterodimerized IgG1 (He Ab); mutation only in the GpH7-B3 chain; also called He Ab S239N
# B21: GpH7-A5/GpH7-B3 variant V266_08L/GpL16-k0 (antibody, human IgG1, kappa)
# heavy 1: not shown
# heavy 2: not shown
# light: B1 light
# notes: Heterodimerized IgG1 (He Ab); mutation only in the GpH7-B3 chain; also called He Ab V266L
# B22: GpH7-A5/GpH7-B3 variant V266_12R/GpL16-k0 (antibody, human IgG1, kappa)
# heavy 1: not shown
# heavy 2: not shown
# light: B1 light
# notes: Heterodimerized IgG1 (He Ab); mutation only in the GpH7-B3 chain; also called He Ab V266R
# B23: GpH7-A5/GpH7-B3 variant V266_04F/GpL16-k0 (antibody, human IgG1, kappa)
# heavy 1: not shown
# heavy 2: not shown
# light: B1 light
# notes: Heterodimerized IgG1 (He Ab); mutation only in the GpH7-B3 chain; also called He Ab V266F
# B24: GpH7-A5/GpH7-B3 variant S239_09D/GpL16-k0 (antibody, human IgG1, kappa)
# heavy 1: not shown
# heavy 2: not shown
# light: B1 light
# notes: Heterodimerized IgG1 (He Ab); mutation only in the GpH7-B3 chain; also called He Ab S239D
# B25: GpH7-A5/GpH7-B3 variant V266_15Y/GpL16-k0 (antibody, human IgG1, kappa)
# heavy 1: not shown
# heavy 2: not shown
# light: B1 light
# notes: Heterodimerized IgG1 (He Ab); mutation only in the GpH7-B3 chain; also called He Ab V266Y
# B26: GpH7-A5/GpH7-B3 variant V266_14T/GpL16-k0 (antibody, human IgG1, kappa)
# heavy 1: not shown
# heavy 2: not shown
# light: B1 light
# notes: Heterodimerized IgG1 (He Ab); mutation only in the GpH7-B3 chain; also called He Ab V266T
# Target: T1, FcγRIIIa extracellular domain with C-terminal His tag (human, UniProt P08637 17-208)
# T1 construct: extracellular domain; also called FcgRIIIa; 3a; not shown: His tag at the C terminus
# Assay: SPR; He/Con_3a divided by He/Con_2b (binding to FcγRIIb is the reference)
# Protocol: (§1) Analysis of interaction between objective antibody and the FcγR was carried out using Biacore T100 (GE Healthcare). HBS-EP+ (GE Healthcare) was used as the running buffer, and the measurement temperature was set to 25° C. Chips produced by immobilizing the antigen peptide by the amine coupling method to a Series S Sencor Chip CM5 (GE Healthcare), or alternatively, chips produced by allowing preliminarily biotinylated antigen peptides to interact with and immobilize onto a Series S Sensor Chip SA (certified) (GE Healthcare) were used. Antibodies of interest were captured onto an antigen peptide-immobilized chip, and allowed to interact to each FcγR diluted with running buffer. To regenerate and repeatedly use the chip, the antibodies captured on the chip were washed off by reacting 10 mM glycine-HCl, pH 1.5.
# (§2) The FcγR-binding activity of each antibody was assessed primarily using as an indicator the FcγR-binding activity and dissociation constant for FcγR.
# T1 sequence (P08637 17-208): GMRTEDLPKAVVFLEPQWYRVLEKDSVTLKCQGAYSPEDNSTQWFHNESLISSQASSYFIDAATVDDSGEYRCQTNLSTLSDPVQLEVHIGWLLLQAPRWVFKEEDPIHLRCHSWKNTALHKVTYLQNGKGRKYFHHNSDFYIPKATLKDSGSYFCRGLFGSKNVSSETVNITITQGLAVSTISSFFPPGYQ
row,Binder,He_3a/2b (IIIa/IIb) [ratio]
1,B1,0.53
2,B2,0.15
3,B3,0.28
4,B4,0.51
5,B5,0.57
6,B6,0.78
7,B7,0.71
8,B8,0.55
9,B9,0.27
10,B10,0.4

# Target: T2, FcγRIIa H (FcγRIIa type H, His at position 131), extracellular domain with C-terminal His tag (human, UniProt P12318 34-217)
# T2 construct: extracellular domain; also called 2aH; FcgRIIa H; not shown: His tag at the C terminus
# T2 sequence (looked up): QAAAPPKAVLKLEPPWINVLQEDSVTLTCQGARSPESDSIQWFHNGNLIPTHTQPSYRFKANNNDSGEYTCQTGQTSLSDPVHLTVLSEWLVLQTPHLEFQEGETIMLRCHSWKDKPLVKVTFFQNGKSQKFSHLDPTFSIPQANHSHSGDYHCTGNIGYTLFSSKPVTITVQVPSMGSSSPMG
# Assay: ratio of He/Con_2aH (FcγRIIa H) to He/Con_2b (FcγRIIb), SPR relative binding
# Protocol: The heterodimerized antibodies He Abs in which one of the H chains was introduced with an alteration were assayed for their binding activities to each activating FcγR and inhibitory FcγR according to the method described in Example 4. […] The activating FcγRs in FIGS. 26, 27, 28, and 29 are FcγRIa, FcγRIIa (R), FcγRIIa (H), and FcγRIIIa, respectively.
# as §1
row,Binder,He_2aH/2b (IIaH/IIb ratio)
1,B11,0.33
2,B12,0.66
3,B13,0.69
4,B14,0.75
5,B15,0.62
6,B16,0.63
7,B17,0.33
8,B18,0.5
9,B19,0.78
10,B20,0.79
11,B21,0.44
12,B22,-1.05
13,B23,0.44
14,B24,0.56
15,B25,0.37
16,B26,0.53

# Target: T1, FcγRIIIa extracellular domain with …
# Assay: SPR (Biacore), antibody captured on antigen peptide chip, FcγR as analyte; relative binding amount
# Protocol: as §1, §2
row,Binder,He/Con_3a
1,B1,76.2 % of GpH7-A5/GpH7-B3/GpL16-k0 (=100)
2,B2,14.9 % of GpH7-A5/GpH7-B3/GpL16-k0 (=100)
3,B3,4.5 % of GpH7-A5/GpH7-B3/GpL16-k0 (=100)
4,B4,55.8 % of GpH7-A5/GpH7-B3/GpL16-k0 (=100)
5,B5,25.3 % of GpH7-A5/GpH7-B3/GpL16-k0 (=100)
6,B6,78.2 % of GpH7-A5/GpH7-B3/GpL16-k0 (=100)
7,B7,76.6 % of GpH7-A5/GpH7-B3/GpL16-k0 (=100)
8,B8,40.4 % of GpH7-A5/GpH7-B3/GpL16-k0 (=100)
9,B9,30.7 % of GpH7-A5/GpH7-B3/GpL16-k0 (=100)
10,B10,49.7 % of GpH7-A5/GpH7-B3/GpL16-k0 (=100)

# Target: T3, FcγRIIb extracellular domain with C-terminal His tag (human, UniProt P31994 43-217)
# T3 construct: extracellular domain; also called FcgRIIb; 2b; not shown: His tag at the C terminus
# T3 sequence (looked up): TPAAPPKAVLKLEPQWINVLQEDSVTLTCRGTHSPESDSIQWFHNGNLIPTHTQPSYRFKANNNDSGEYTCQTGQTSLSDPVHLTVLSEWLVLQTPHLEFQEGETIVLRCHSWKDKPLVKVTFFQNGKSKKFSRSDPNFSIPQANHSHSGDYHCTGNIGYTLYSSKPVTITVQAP
# Assay: as above
# Protocol: as §1, §2
row,Binder,He/Con_2b
1,B1,144 % of GpH7-A5/GpH7-B3/GpL16-k0 (=100)
2,B2,102 % of GpH7-A5/GpH7-B3/GpL16-k0 (=100)
3,B3,16.1 % of GpH7-A5/GpH7-B3/GpL16-k0 (=100)
4,B4,110 % of GpH7-A5/GpH7-B3/GpL16-k0 (=100)
5,B5,44.1 % of GpH7-A5/GpH7-B3/GpL16-k0 (=100)
6,B6,101 % of GpH7-A5/GpH7-B3/GpL16-k0 (=100)
7,B7,108 % of GpH7-A5/GpH7-B3/GpL16-k0 (=100)
8,B8,73.2 % of GpH7-A5/GpH7-B3/GpL16-k0 (=100)
9,B9,115 % of GpH7-A5/GpH7-B3/GpL16-k0 (=100)
10,B10,123 % of GpH7-A5/GpH7-B3/GpL16-k0 (=100)

# Target: T2, FcγRIIa H (FcγRIIa type H, His at …)
# Assay: SPR (Biacore), antibody captured on antigen-peptide chip, FcγR as analyte; GpH7-A5/GpH7-B3/GpL16-k0 = 100
row,Binder,He/Con_2aH (relative binding activity)
1,B11,33.3 % of control
2,B12,10.1 % of control
3,B13,106 % of control
4,B14,105 % of control
5,B15,112 % of control
6,B16,6.4 % of control
7,B17,83.9 % of control
8,B18,27 % of control
9,B19,35.2 % of control
10,B20,94.2 % of control
11,B21,104 % of control
12,B22,1.1 % of control
13,B23,25.3 % of control
14,B24,114 % of control
15,B25,18.1 % of control
16,B26,43.3 % of control

# Target: T4, FcγRIIb, extracellular domain with C-terminal His tag (human, UniProt P31994 43-217)
# T4 construct: extracellular domain; also called 2b; FcgRIIb; not shown: His tag at the C terminus
# T4 sequence (looked up): T3 sequence (looked up)
# Assay: as above
row,Binder,He/Con_2b (relative binding activity)
1,B11,102 % of control
2,B12,15.2 % of control
3,B13,152 % of control
4,B14,140 % of control
5,B15,181 % of control
6,B16,10.1 % of control
7,B17,251 % of control
8,B18,54.4 % of control
9,B19,45.1 % of control
10,B20,119 % of control
11,B21,236 % of control
12,B22,-1.1 % of control
13,B23,57.6 % of control
14,B24,206 % of control
15,B25,49.4 % of control
16,B26,82.3 % of control
